The values below come from paper PMC8960874 (Nature Communications, 2022).

The assay concerns the target T1, WT ectodomain of the SARS-CoV-2 spike trimer (SARS-CoV-2, original …, stabilised).
T1 construct: also called S trimer; prefusion spike trimer ectodomain
Briefly: cryo-EM structure. Conditions: both partners purified.

B1: Clone 6 Fab (Fab, V domains shown)
VH: QVQLQQSAAELARPGASVKMSCKASGYTFTSYTMHWVKQRPGQGLEWIGYINPTSGYTEYNQNFKDKTTLTADKSSSTAYMQLNSLTSEDSAVYYCAREGHRVGPAYWGQGTLVTVSA
VL: not shown
notes: also called Fab6; Fab clone 6
In the case of B1, the “stoichiometry N” value was 3 Fab molecules per S trimer.

B2: Clone 2 Fab (Fab, V domains shown)
VH: EVQLQQSGPELVKPGASVKISCKASGYSFTGYSMNWMKQSPEKSLEWIGEINPSTGGTTDNQKFKAKATLTVDKSSSTAYMQLKSLTSEDSAVYYCARSRGDYWGQGTSVTVSS
VL: DIVLTQSPASLAVSLGQRATISCRASESVEYYGTSLMQWYQQKPGQPPKVLIYAASNVESGVPARFSGSGSGTDFSLNIHPVEEDDIAMYFCQQSRKVPWTFGGGTKLEIK
notes: also called Fab2; Fab clone 2
Take B2: the “stoichiometry N” value is 3 Fab molecules per S trimer.
